In patent publication US11306156:

Columns and labels:
[1] = target: D3H44 Fab heavy chain L124R_Q179K, C-terminal ABD2-His6 tag; assay: LCCA set 9384 (co-expression; SPR read-out of light-chain tags; L1:L2 DNA 1:3, normalized to 1:1); competing light chain m17
[2] = target: D3H44 Fab heavy chain L124E_L143D_K145T, C-terminal ABD2-His6 tag; assay: LCCA set 9217 (co-expression; SPR read-out of light-chain tags; L1:L2 DNA 1:3, normalized to 1:1); competing light chain m16
[3] = target: D3H44 Fab heavy chain L124E_L143E_K145T, C-terminal ABD2-His6 tag; assay: LCCA co-expression, SPR tag read-out; DNA 1:3 norm. to 1:1; competing light chain m11
[4] = target: D3H44 Fab heavy chain L124R_Q179K, C-terminal ABD2-His6 tag; assay: as above
[5] = target: D3H44 Fab heavy chain L124E_L143E_K145T, C-terminal ABD2-His6 tag; assay: LCCA (co-expression, SPR read-out of light chain tags), L1:L2 DNA 1:3 normalised to 1:1; competitor m17
[6] = target: D3H44 Fab heavy chain L124R_S186K, C-terminal ABD2-His6 tag; assay: as above
[7] = target: D3H44 Fab heavy chain L124R_S186R, C-terminal ABD2-His6 tag; assay: as above
[8] = target: D3H44 Fab heavy chain L124R_S186K, C-terminal ABD2-His6 tag; assay: LCCA set 9473 (co-expression; SPR read-out of light-chain tags; L1:L2 DNA 1:3, normalized to 1:1); competing light chain m16
[9] = target: D3H44 Fab heavy chain L124E_L143E_K145M, C-terminal ABD2-His6 tag; assay: LCCA set 9259 (co-expression; SPR read-out of light-chain tags; L1:L2 DNA 1:3, normalized to 1:1); competing light chain m17
[10] = target: D3H44 Fab heavy chain L124E_L143E_K145T, C-terminal ABD2-His6 tag; assay: LCCA set 9298 (co-expression; SPR read-out of light-chain tags; L1:L2 DNA 1:3, normalized to 1:1); competing light chain m17
[11] = target: D3H44 Fab heavy chain L124R_S186R, C-terminal ABD2-His6 tag; assay: LCCA set 9505 (co-expression; SPR read-out of light-chain tags; L1:L2 DNA 1:3, normalized to 1:1); competing light chain m15
[12] = target: D3H44 Fab heavy chain L124E_L143D_K145M, C-terminal ABD2-His6 tag; assay: LCCA (co-expression, SPR read-out of light chain tags), L1:L2 DNA 1:3 normalised to 1:1; competitor m13
[13] = target: D3H44 Fab heavy chain L124E_L143D_K145T, C-terminal ABD2-His6 tag; assay: as above
[14] = target: D3H44 Fab heavy chain L124R_Q179K, C-terminal ABD2-His6 tag; assay: as above
[15] = target: D3H44 Fab heavy chain L124E_L143E_K145M, C-terminal ABD2-His6 tag; assay: as above
[16] = target: D3H44 Fab heavy chain L124E_L143E_K145M, C-terminal ABD2-His6 tag; assay: LCCA set 9263 (co-expression; SPR read-out of light-chain tags; L1:L2 DNA 1:3, normalized to 1:1); competing light chain m14
[17] = target: D3H44 Fab heavy chain L124E_L143E_K145T, C-terminal ABD2-His6 tag; assay: LCCA (co-expression, SPR read-out of light chain tags), L1:L2 DNA 1:3 normalised to 1:1; competitor m16
[18] = target: D3H44 Fab heavy chain L124E_L143D_K145T, C-terminal ABD2-His6 tag; assay: as above
[19] = target: D3H44 Fab heavy chain L124R_Q179K, C-terminal ABD2-His6 tag; assay: as above
[20] = target: D3H44 Fab heavy chain L124R_S186R, C-terminal ABD2-His6 tag; assay: as above
[21] = target: D3H44 Fab heavy chain L124E_L143E_K145T, C-terminal ABD2-His6 tag; assay: LCCA co-expression, SPR tag read-out; DNA 1:3 norm. to 1:1; competing light chain m13
[22] = target: D3H44 Fab heavy chain L124R_Q179K, C-terminal ABD2-His6 tag; assay: as above
[23] = target: D3H44 Fab heavy chain L124E_L143E_K145M, C-terminal ABD2-His6 tag; assay: as above
[24] = target: D3H44 Fab heavy chain L124E_L143D_K145M, C-terminal ABD2-His6 tag; assay: LCCA set 9176 (co-expression; SPR read-out of light-chain tags; L1:L2 DNA 1:3, normalized to 1:1); competing light chain m15
[25] = target: D3H44 Fab heavy chain L124R_S186K, C-terminal ABD2-His6 tag; assay: LCCA set 9451 (co-expression; SPR read-out of light-chain tags; L1:L2 DNA 1:3, normalized to 1:1); competing light chain m15
[26] = target: D3H44 Fab heavy chain L124E_L143D_K145T, C-terminal ABD2-His6 tag; assay: LCCA set 9214 (co-expression; SPR read-out of light-chain tags; L1:L2 DNA 1:3, normalized to 1:1); competing light chain m15
[27] = target: D3H44 Fab heavy chain L124E_L143E_K145M, C-terminal ABD2-His6 tag; assay: LCCA set 9257 (co-expression; SPR read-out of light-chain tags; L1:L2 DNA 1:3, normalized to 1:1); competing light chain m15
[28] = target: D3H44 Fab heavy chain L124E_L143E_K145M, C-terminal ABD2-His6 tag; assay: LCCA set 9266 (co-expression; SPR read-out of light-chain tags; L1:L2 DNA 1:3, normalized to 1:1); competing light chain m17
[29] = target: D3H44 Fab heavy chain L124R_S186R, C-terminal ABD2-His6 tag; assay: LCCA set 9550 (co-expression; SPR read-out of light-chain tags; L1:L2 DNA 1:3, normalized to 1:1); competing light chain m14
[30] = target: D3H44 Fab heavy chain L124E_L143E_K145T, C-terminal ABD2-His6 tag; assay: LCCA set 9320 (co-expression; SPR read-out of light-chain tags; L1:L2 DNA 1:3, normalized to 1:1); competing light chain m18
[31] = target: D3H44 Fab heavy chain L124R_S186K, C-terminal ABD2-His6 tag; assay: LCCA set 9488 (co-expression; SPR read-out of light-chain tags; L1:L2 DNA 1:3, normalized to 1:1); competing light chain m18
[32] = target: D3H44 Fab heavy chain L124E_L143E_K145T, C-terminal ABD2-His6 tag; assay: LCCA set 9323 (co-expression; SPR read-out of light-chain tags; L1:L2 DNA 1:3, normalized to 1:1); competing light chain m14
[33] = target: D3H44 Fab heavy chain L124R_Q179K, C-terminal ABD2-His6 tag; assay: LCCA set 9388 (co-expression; SPR read-out of light-chain tags; L1:L2 DNA 1:3, normalized to 1:1); competing light chain m17
[34] = target: D3H44 Fab heavy chain L124E_L143E_K145T, C-terminal ABD2-His6 tag; assay: LCCA (co-expression, SPR read-out of light chain tags), L1:L2 DNA 1:3 normalised to 1:1; competitor m13
[35] = target: D3H44 Fab heavy chain L124R_S186K, C-terminal ABD2-His6 tag; assay: LCCA (co-expression, SPR read-out of light chain tags), L1:L2 DNA 1:3 normalised to 1:1; competitor m16
[36] = target: D3H44 Fab heavy chain L124E_L143E_K145M, C-terminal ABD2-His6 tag; assay: as above
[37] = target: D3H44 Fab heavy chain L124E_L143D_K145T, C-terminal ABD2-His6 tag; assay: LCCA co-expression, SPR tag read-out; DNA 1:3 norm. to 1:1; competing light chain m13
[38] = target: D3H44 Fab heavy chain L124R_S186K, C-terminal ABD2-His6 tag; assay: as above
[39] = target: D3H44 Fab heavy chain L124E_L143E_K145T, C-terminal ABD2-His6 tag; assay: LCCA set 9316 (co-expression; SPR read-out of light-chain tags; L1:L2 DNA 1:3, normalized to 1:1); competing light chain m17

With “D3H44 light chain Q124K_V133G_S176R_T178K, N-terminal HA or FLAG tag” the H2L2:H2L1 normalized median ratio (H2L1 part) [1] was 8%, the H1L1:H1L2 normalized median ratio (H1L1 part) [2] was 82% and the H1L1:H1L2 normalized median scalar value ln(r1/f1) [2] was 1.52. It also gave an H1L1:H1L2 normalized median ratio (% (ratio normalized to 100)) [3] of 89, an H1L1:H1L2 normalized median scalar value ln(r1/f1) [3] of 2.12 and an H2L2:H2L1 normalized median ratio (% (ratio normalized to 100)) [4] of 4. For the same substance, the H1L1:H1L2 normalized median ratio [5] was 87%, the H1L1:H1L2 normalized median scalar value ln(r1/f1) [5] was 1.89 and the H2L2:H2L1 normalized median ratio [6] was 7%. It also gave an H2L2:H2L1 normalized median ratio [7] of 6%, an H2L2:H2L1 normalized median ratio (H2L1 part) [8] of 7% and an H1L1:H1L2 normalized median ratio (H1L1 part) [9] of 84%. It also gave an H1L1:H1L2 normalized median scalar value ln(r1/f1) [9] of 1.67, an H1L1:H1L2 normalized median ratio (H1L1 part) [10] of 88% and an H2L2:H2L1 normalized median ratio (H2L1 part) [11] of 6%. The H1L1:H1L2 normalized median ratio [12] was 85%, the H1L1:H1L2 normalized median scalar value ln(r1/f1) [12] was 1.76 and the H1L1:H1L2 normalized median ratio [13] was 84%. The H1L1:H1L2 normalized median scalar value ln(r1/f1) [13] was 1.66, the H2L2:H2L1 normalized median ratio [14] was 4% and the H1L1:H1L2 normalized median ratio [15] was 85%. The H1L1:H1L2 normalized median scalar value ln(r1/f1) [15] was 1.77, the H1L1:H1L2 normalized median ratio (H1L1 part) [16] was 88% and the H1L1:H1L2 normalized median scalar value ln(r1/f1) [16] was 1.95. For the same substance, the H1L1:H1L2 normalized median ratio [17] was 89%, the H1L1:H1L2 normalized median scalar value ln(r1/f1) [17] was 2.08 and the H1L1:H1L2 normalized median ratio [18] was 81%. For the same substance, the H2L2:H2L1 normalized median ratio [19] was 4%, the H2L2:H2L1 normalized median ratio [20] was 8% and the H1L1:H1L2 normalized median ratio (% (ratio normalized to 100)) [21] was 89. The H1L1:H1L2 normalized median scalar value ln(r1/f1) [21] was 2.08, the H2L2:H2L1 normalized median ratio (% (ratio normalized to 100)) [22] was 4 and the H1L1:H1L2 normalized median ratio (% (ratio normalized to 100)) [23] was 88. For the same substance, the H1L1:H1L2 normalized median scalar value ln(r1/f1) [23] was 1.95, the H1L1:H1L2 normalized median ratio (H1L1 part) [24] was 83% and the H1L1:H1L2 normalized median scalar value ln(r1/f1) [24] was 1.62. The H2L2:H2L1 normalized median ratio (H2L1 part) [25] was 7%, the H1L1:H1L2 normalized median ratio (H1L1 part) [26] was 85% and the H1L1:H1L2 normalized median scalar value ln(r1/f1) [26] was 1.71. The H1L1:H1L2 normalized median ratio (H1L1 part) [27] was 84% and the H1L1:H1L2 normalized median scalar value ln(r1/f1) [27] was 1.65.
For “D3H44 light chain Q124K_V133G_S176R_T178R, N-terminal HA or FLAG tag”, the H1L1:H1L2 normalized median ratio (H1L1 part) [28] was 84%, the H1L1:H1L2 normalized median scalar value ln(r1/f1) [28] was 1.67 and the H2L2:H2L1 normalized median ratio (H2L1 part) [29] was 11%. The H1L1:H1L2 normalized median ratio (H1L1 part) [30] was 86%, the H1L1:H1L2 normalized median scalar value ln(r1/f1) [30] was 1.82 and the H2L2:H2L1 normalized median ratio (H2L1 part) [31] was 9%. The H1L1:H1L2 normalized median ratio (H1L1 part) [32] was 91%, the H1L1:H1L2 normalized median scalar value ln(r1/f1) [32] was 2.34 and the H2L2:H2L1 normalized median ratio (H2L1 part) [33] was 8%. It also gave an H1L1:H1L2 normalized median ratio [34] of 90%, an H1L1:H1L2 normalized median scalar value ln(r1/f1) [34] of 2.15 and an H2L2:H2L1 normalized median ratio [14] of 7%. The H1L1:H1L2 normalized median ratio [15] was 87%, the H1L1:H1L2 normalized median scalar value ln(r1/f1) [15] was 1.9 and the H1L1:H1L2 normalized median ratio [18] was 87%. The H2L2:H2L1 normalized median ratio [35] was 7%, the H1L1:H1L2 normalized median ratio [36] was 88% and the H1L1:H1L2 normalized median ratio (% (ratio normalized to 100)) [21] was 91. The H1L1:H1L2 normalized median scalar value ln(r1/f1) [21] was 2.34, the H1L1:H1L2 normalized median ratio (% (ratio normalized to 100)) [37] was 87 and the H2L2:H2L1 normalized median ratio (% (ratio normalized to 100)) [22] was 5. It also gave an H2L2:H2L1 normalized median ratio (% (ratio normalized to 100)) [38] of 7, an H1L1:H1L2 normalized median ratio (% (ratio normalized to 100)) [23] of 88 and an H1L1:H1L2 normalized median ratio (H1L1 part) [39] of 88%. For the same substance, the H1L1:H1L2 normalized median scalar value ln(r1/f1) [39] was 2.
